The experiment deals with Sra1 (human, UniProt Q7L576 1-1253). The experiment in a line: reconstitution and co-purification.
Sra1, sequence (Q7L576 whole entry): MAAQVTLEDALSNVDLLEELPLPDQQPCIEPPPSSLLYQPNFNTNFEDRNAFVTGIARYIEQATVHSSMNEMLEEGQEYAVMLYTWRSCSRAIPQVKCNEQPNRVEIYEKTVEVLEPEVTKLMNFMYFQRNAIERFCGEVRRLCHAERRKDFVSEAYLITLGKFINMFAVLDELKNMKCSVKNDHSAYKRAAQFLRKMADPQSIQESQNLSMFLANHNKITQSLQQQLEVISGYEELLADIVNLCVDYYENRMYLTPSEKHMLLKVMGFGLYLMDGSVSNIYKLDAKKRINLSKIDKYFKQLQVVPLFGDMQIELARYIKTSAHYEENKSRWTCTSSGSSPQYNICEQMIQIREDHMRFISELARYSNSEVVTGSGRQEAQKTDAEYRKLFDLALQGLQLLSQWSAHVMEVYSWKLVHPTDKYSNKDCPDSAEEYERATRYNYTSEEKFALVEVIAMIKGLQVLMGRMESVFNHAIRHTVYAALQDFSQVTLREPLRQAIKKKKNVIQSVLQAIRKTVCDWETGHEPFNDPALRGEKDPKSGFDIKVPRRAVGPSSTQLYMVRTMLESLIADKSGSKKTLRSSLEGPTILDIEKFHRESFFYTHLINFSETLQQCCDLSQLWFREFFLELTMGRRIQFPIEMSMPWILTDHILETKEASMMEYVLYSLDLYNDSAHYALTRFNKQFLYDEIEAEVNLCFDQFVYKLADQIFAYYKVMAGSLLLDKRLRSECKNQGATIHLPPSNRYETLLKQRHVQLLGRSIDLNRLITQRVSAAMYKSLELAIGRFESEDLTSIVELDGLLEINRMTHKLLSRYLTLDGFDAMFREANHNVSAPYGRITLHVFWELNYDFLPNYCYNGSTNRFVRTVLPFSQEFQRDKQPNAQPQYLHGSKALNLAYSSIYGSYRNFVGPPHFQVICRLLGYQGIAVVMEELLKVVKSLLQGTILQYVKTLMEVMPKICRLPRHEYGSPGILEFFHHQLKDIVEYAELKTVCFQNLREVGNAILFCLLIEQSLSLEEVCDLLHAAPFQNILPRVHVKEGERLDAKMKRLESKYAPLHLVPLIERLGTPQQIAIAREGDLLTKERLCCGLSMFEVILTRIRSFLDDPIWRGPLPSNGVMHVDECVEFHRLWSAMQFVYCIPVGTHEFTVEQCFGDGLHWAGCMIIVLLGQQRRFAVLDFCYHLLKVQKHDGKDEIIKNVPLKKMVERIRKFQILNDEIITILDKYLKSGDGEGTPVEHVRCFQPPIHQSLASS

B1: Nap1 (natural protein)
chain: MSRSVLQPSQQKLAEKLTILNDRGVGMLTRLYNIKKACGDPKAKPSYLIDKNLESAVKFIVRKFPAVETRNNNQQLAQLQKEKSEILKNLALYYFTFVDVMEFKDHVCELLNTIDVCQVFFDITVNFDLTKNYLDLIITYTTLMILLSRIEERKAIIGLYNYAHEMTHGASDREYPRLGQMIVDYENPLKKMMEEFVPHSKSLSDALISLQMVYPRRNLSADQWRNAQLLSLISAPSTMLNPAQSDTMPCEYLSLDAMEKWIIFGFILCHGILNTDATALNLWKLALQSSSCLSLFRDEVFHIHKAAEDLFVNIRGYNKRINDIRECKEAAVSHAGSMHRERRKFLRSALKELATVLSDQPGLLGPKALFVFMALSFARDEIIWLLRHADNMPKKSADDFIDKHIAELIFYMEELRAHVRKYGPVMQRYYVQYLSGFDAVVLNELVQNLSVCPEDESIIMSSFVNTMTSLSVKQVEDGEVFDFRGMRLDWFRLQAYTSVSKASLGLADHRELGKMMNTIIFHTKMVDSLVEMLVETSDLSIFCFYSRAFEKMFQQCLELPSQSRYSIAFPLLCTHFMSCTHELCPEERHHIGDRSLSLCNMFLDEMAKQARNLITDICTEQCTLSDQLLPKHCAKTISQAVNKKSKKQTGKKGEPEREKPGVESMRKNRLVVTNLDKLHTALSELCFSINYVPNMVVWEHTFTPREYLTSHLEIRFTKSIVGMTMYNQATQEIAKPSELLTSVRAYMTVLQSIENYVQIDITRVFNNVLLQQTQHLDSHGEPTITSLYTNWYLETLLRQVSNGHIAYFPAMKAFVNLPTENELTFNAEEYSDISEMRSLSELLGPYGMKFLSESLMWHISSQVAELKKLVVENVDVLTQMRTSFDKPDQMAALFKRLSSVDSVLKRMTIIGVILSFRSLAQEALRDVLSYHIPFLVSSIEDFKDHIPRETDMKVAMNVYELSSAAGLPCEIDPALVVALSSQKSENISPEEEYKIACLLMVFVAVSLPTLASNVMSQYSPAIEGHCNNIHCLAKAINQIAAALFTIHKGSIEDRLKEFLALASSSLLKIGQETDKTTTRNRESVYLLLDMIVQESPFLTMDLLESCFPYVLLRNAYHAVYKQSVTSSA
As for B1, the binding result was “binds”.

Values taken from publication PMC10979099 (The Journal of Biological Chemistry, 2024).
